According to patent US20250320282A1 (MABYLON, published 2025):

T1: Ara h 6 (Arachis hypogaea allergen 6) (Arachis hypogaea, UniProt Q647G9 22-145)
T1 construct: Peanut allergen; also called Ara h 6.0101; nAra h 6
T1 sequence: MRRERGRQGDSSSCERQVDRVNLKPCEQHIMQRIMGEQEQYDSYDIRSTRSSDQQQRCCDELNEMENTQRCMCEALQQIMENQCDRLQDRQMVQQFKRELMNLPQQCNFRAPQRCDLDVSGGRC


Target: T1, Ara h 6 (Arachis hypogaea allergen 6)
Assay: ELISA, Fab titration on coated Ara h 6
Method: Next, the effect of the engineered variable regions on antigen binding was tested. Briefly, ELISA plates were coated with respective Ara h proteins (Ara h 2:0.05 ug/ml, Ara h 6:0.1 ug/ml, Ara h 3 loop (2nd): 0.1 ug/ml) overnight at 4° C. Afterwards, plates were blocked with BSA (2% in PBS) for 1 hour at room temperature. Fab fragment titration series starting from 4 ug/ml was prepared, added to the single ELISA plate wells and incubated for 2 h at room temperature. The read-out was performed by adding anti-hu-kappa/lambda-HRP (anti-kappa Invitrogen (A18853) and anti-lambda abcam (ab99811) for 1 h at room temperature. Tetramethylbenzidine substrate solution (TMB, Sigma-Aldrich Chemie GmbH, Buchs, Switzerland) was added, then after 5 minutes of hydrolysis time, the reaction was stopped by the addition of 1 M H₂SO₄ and the absorbances were read at 450 nm.

Row | Binder | binding result
1 | MY006-2F8 Fab Hg (Fab, V domains shown, Germlined variant, IgG1-Fab format; also called 2F8 Hg) VH: EVQLVESGGGLVQPGGSLRLSCAASGFIFSDYNMNWVRQAPGKGLEWVSSITRSSRTIYYADSVKGRFTISRDNAKNSLYLQMNSLRDEDTAVYYCAREDFDVSTGPYYMDVWGKGTTVTVSS VL: EIVLTQSPGTLSLSPGERATLSCRASQSVSNMFLVWYQQKPGQAPRLLMYGASTRATDIPDRFSGSGSGTDFTLTISRLEPEDFAVYYCQQNGNSPYTFGQGTKLEIK | binds
2 | MY006-2F8 Fab Hg Lg (Fab, V domains shown, Germlined variant, IgG1-Fab format) VH: EVQLVESGGGLVQPGGSLRLSCAASGFIFSDYNMNWVRQAPGKGLEWVSSITRSSRTIYYADSVKGRFTISRDNAKNSLYLQMNSLRDEDTAVYYCAREDFDVSTGPYYMDVWGKGTTVTVSS VL: EIVLTQSPGTLSLSPGERATLSCRASQSVSNMFLVWYQQKPGQAPRLLMYGASTRATGIPDRFSGSGSGTDFTLTISRLEPEDFAVYYCQQNGNSPYTFGQGTKLEIK | binds
3 | MY006-2F8 Fab Lf (Fab, V domains shown, Germlined variant, IgG1-Fab format; also called 2F8 Lf) VH: EVQLVESGGGLVKPGGSLRLSCAASGFIFSDYNMNWVRQAPGKGLEWVSSITRSSRTIYYADSVKGRFTISRDNAKNSLHLQMNSLRDADTAVYYCAREDFDVSTGPYYMDVWGNGTTVIVSS VL: EIVLTQSPGTLSLSPGERATLSCRASQSVSNMFLVWYQQKPGQAPRLLIYGASTRATGIPDRFSGSGSGTDFTLTISRLEPEDFAVYYCQQNGNSPYTFGQGTKLEIK | binds
4 | MY006-7G6 Fab Hg Lg (Fab, V domains shown, Germlined variant, IgG1-Fab format) VH: QVQLVESGGGVVQPGRSLRLSCAASGIAFNDYTMHWVRRAPGKGLEWVAAISYGGTNKYYADSVKGRFTISRDSSKNTLYLQMNSLRAEDTAVYYCARDSGYRSLLHWGQGTLVTVSS VL: EIVLTQSPLSLPVTPGEPASISCRSSQSLVHRNGYNYLDWYLQKPGQSPQLLIYMASKRASGVPDRFSGSGSGTDFTLKISRVEAEDVGVYYCMQALQTWTFGQGTKVEIK | binds
5 | MY006-7G6 Fab Hf (Fab, V domains shown, Germlined variant, IgG1-Fab format; also called 7G6 Hf) VH: QVQLVESGGGVVQPGRSLRLSCAASGIAFNDYTMHWVRQAPGKGLEWVAAISYGGTNKYYADSVKGRFTISRDNSKNTLYLQMNSLRAEDTAVYYCARDSGYRSLLHWGQGTLVTVSS VL: EIVLTQSPLSLPVTPGEPASISCRSSQSLVHRNGYNYLDWYLQKPGQSPQLLIYMASKRASGVPDRFSGSGSGTEFTLKISRVEAEDVGIYYCMQALQTWTFGQGTKVEVN | binds
6 | MY006-7G6 Fab Hf Lf (Fab, V domains shown, Germlined variant, IgG1-Fab format) VH: QVQLVESGGGVVQPGRSLRLSCAASGIAFNDYTMHWVRQAPGKGLEWVAAISYGGTNKYYADSVKGRFTISRDNSKNTLYLQMNSLRAEDTAVYYCARDSGYRSLLHWGQGTLVTVSS VL: DIVMTQSPLSLPVTPGEPASISCRSSQSLVHRNGYNYLDWYLQKPGQSPQLLIYMASKRASGVPDRFSGSGSGTDFTLKISRVEAEDVGVYYCMQALQTWTFGQGTKVEIK | binds
7 | MY006-7G6 Fab Hf Lg (Fab, V domains shown, Germlined variant, IgG1-Fab format; also called 7G6: Hf/Lg) VH: QVQLVESGGGVVQPGRSLRLSCAASGIAFNDYTMHWVRQAPGKGLEWVAAISYGGTNKYYADSVKGRFTISRDNSKNTLYLQMNSLRAEDTAVYYCARDSGYRSLLHWGQGTLVTVSS VL: EIVLTQSPLSLPVTPGEPASISCRSSQSLVHRNGYNYLDWYLQKPGQSPQLLIYMASKRASGVPDRFSGSGSGTDFTLKISRVEAEDVGVYYCMQALQTWTFGQGTKVEIK | binds
8 | MY006-7G6 Fab Hg (Fab, V domains shown, Germlined variant, IgG1-Fab format; also called 7G6 Hg) VH: QVQLVESGGGVVQPGRSLRLSCAASGIAFNDYTMHWVRRAPGKGLEWVAAISYGGTNKYYADSVKGRFTISRDSSKNTLYLQMNSLRAEDTAVYYCARDSGYRSLLHWGQGTLVTVSS VL: EIVLTQSPLSLPVTPGEPASISCRSSQSLVHRNGYNYLDWYLQKPGQSPQLLIYMASKRASGVPDRFSGSGSGTEFTLKISRVEAEDVGIYYCMQALQTWTFGQGTKVEVN | binds
